Experimental data from publication PMC7588454, “Osteopontin binds ICOSL promoting tumor metastasis” (Communications Biology, 2020).

B3: soluble recombinant ICOSL-Fc (Fc fusion, UniProt O75144 19-256, looked up)
chain: DTQEKEVRAMVGSDVELSCACPEGSRFDLNDVYVYWQTSESKTVVTYHIPQNSSLENVDSRYRNRALMSPAGMLRGDFSLRLFNVTPQDEQKFHCLVLSQSLGFQEVLSVEVTLHVAANFSVPVVSAPHSPSQDELTFTCTSINGYPRPNVYWINKTDNSLLDQALQNDTVFLNMRGLYDVVSVLRIARTPSVNIGCCIENVLLQQNLTVGSQTGNDIGERDKITENPVSTGEKNAAT
notes: also called B7-H2; CD275; source: bought: Bio-Techne / R&D

What was measured:
Experiment in all cases: ELISA; OPN preparation (60 nM in PBS) coated on MaxiSorp plates; ICOSL-Fc titrated from 60 nM to 1.8 nM in PBS + 0.05% Tween-20, 1 h at 25 C, with or without 60 nM ICOS-Fc, or ICOS-Fc alone; detected with HRP anti-human-IgG1
Settings in all cases: both partners purified
[1] = target: B3
[2] = target: T1, full-length OPN (OPN-a) produced in an eukaryotic system ( (human or mouse cDNA cloned), UniProt P10451-1 17-314)
T1 construct: Osteopontin, full-length form OPN-a; Secreted into the supernatant, so the signal peptide is probably absent (surmise); also called OPN-FL; home-made OPN-FL; source: CHO cells, stably transfected (pUCOE vector), purified from supernatant on nickel-nitrilotriacetic agarose

[3] = target: T2, GST-OPN fusion protein (human OPNa) produced in E. coli (human, UniProt P10451-1 17-314)
T2 construct: human Osteopontin OPNa; also called OPN-GST; huGST-OPN; source: E. coli BL21 (DE3), purified (Glutathione Sepharose)
T2 sequence (P10451 17-314): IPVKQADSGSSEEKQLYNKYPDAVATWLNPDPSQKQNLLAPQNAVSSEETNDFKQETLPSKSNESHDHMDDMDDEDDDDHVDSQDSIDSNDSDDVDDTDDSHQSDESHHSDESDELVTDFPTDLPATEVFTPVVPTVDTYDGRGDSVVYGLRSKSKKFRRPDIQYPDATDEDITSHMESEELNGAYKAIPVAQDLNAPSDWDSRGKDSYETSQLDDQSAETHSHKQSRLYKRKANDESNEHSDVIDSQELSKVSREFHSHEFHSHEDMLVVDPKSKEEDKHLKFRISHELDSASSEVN

T1 sequence (P10451 17-314): as above

B1: recombinant N-term portion of OPN (aa 17-167) (domain or fragment)
chain: not shown
notes: Osteopontin, N-terminal thrombin-generated fragment, aa 17-167; also called OPN-N; OPN-N terminal; source: recombinant
B1: binds [1].

B2: recombinant C-term portion of OPN (aa 168-314) (domain or fragment)
chain: not shown
notes: Osteopontin, C-terminal thrombin-generated fragment, aa 168-314; also called OPN-C; OPN-C terminal; source: recombinant
B2: binds [1].

B3: binds [2]; binds [3].
